Measurements taken from the DeepSol protein solubility set.

Experiment: soluble on expression in E. coli; label from the status in PepcDB or PDB records

| Sequence | soluble on expression in E. coli |
| --- | --- |
| MSNPEQHIQDLALEEVMGDRFGRYSKYIIQERALPDVRDGLKPVQRRILFAMNVEGNTAEKGFRKSAKTVGNVIGNYHPHGDSSVYEAMVRMSQDWKVRNMLIEMHGNNGSVDGDPPAAMRYTEARLSPISAELLRDIEKETVDFIPNFDDTSSEPTVLPARFPNLLVNGSTGISAGYATDIPPHNLTEIIEAVIKRLDNPLCTTDDIMKIVKGPDFPTGGIIQGIDGIRKAYQTGKGRVVVRSKTEIEDIRGGRKQITIHEIPYEVNKANLVKRMDELRIEKKIEGISEVRDETDRTGLRIAVELKKDANAEGVLNYLFKNTDLQVSYNFNMVAINKKRPELMGIIPMLDAYIEHQKEIITKRSEYDIRKARARQHILEGLIKALSILDEVIKLIRGSKDKRDAKLNLQTKYDFSEKQAEAIVSLQLYRLTNTDIHELQSEAKSLAEQISVLEKILGDEAELIAVLKEELAEIKKKYKTARRTEVQAEIAEIKIDTEVLVANEDVIVSVTKEGYVKRTSQRSYAASNGAELAMKEADHAIFIQKMNSLDSLLLFTSKGNFIYRPVHELPDIRWKNLGDHVSHLASDLSAGEEIRSAIAIQAFTEEKRFLFVTKNGMTKQSAITNYKPQRYSKSMMAIKLKGDDELLSVHLIDGTEDIFLATKNGYGLRYSITEIPESGARTAGVKAINLKQDDIVIGGIVLMPNEQKHILLATQRGSLKQMKASEFEPISRAKRGLLMLRELKSNPHRFIGITLADNNDHLFIETNTDQIVEIDVANLRITDRYSNGSFVLDETMEGEPTSIWLAIPEIKDTSDAKEE | not soluble |
| MASIAVCPGSFDPVTYGHLDIIKRGAHIFEQVYVCVLNNSSKKPLFSVEERCELLREVTKDIPNITVETSQGLLIDYARRKNAKAILRGLRAVSDFEYEMQGTSVNRVLDESIETFFMMANNQYSFLSSSIVKEVARYDGSVSEFVPPEVELALQQKFRQGGSHHHHHH | soluble |
| MSLKNTTHFIVFDIERNFRPYKSDDPSEIVDIGAVKIEASTMKVIGEFSELVKPGARLTRHTTKLTGITKKDLMNVEKFPQIIERFIQFIGEDSIFVTWGKEDYRFLVHDCTLHGVDCPCMEKERRIDLQKFVFQAYEELFEHTPSLQSAVEQLGLTWEGKQHRALADAENTANILLKAYSERDITKRYKRHGELELVENGKLTEKAKKKMRKWVFKEMRKNTERPFAWSTFESSDTWESITERYYISEPTIELLKKHFRTAVRKAERRIRYLAEMEKNAEVKEGHHHHHH | soluble |
| MGSDKIHHHHHHMGGCCSQEGCNTRPRYLPLKCYPGLPMRATRRLDLSAVERALREVQGRFAELSQHFTEPRDPFTDEVLLNVVEGYALIDDYVARGIDLFDLQQLNLMLEINATVLCGSDPARRLEFAPHLAATEAHFFNNVEGGIKDLYNWYCAYRSDSIWKRAAGVYVRILSKPQLFIEGNNRTGSLIVSYLLMRAGLPPFVLSLDNAEGYFNPSSVIRNSAKHGVKALYELPKIKKKYAAFLEAKAPEPGKFFLNGTPVPACEGSR | not soluble |
| MGSDKIHHHHHHMRYFSTDSPEVKTIVAQDSRLFQFIEIAGEVQLPTKPNPFQSLVSSIVEQQLSIKAASAIYGRVEQLVGGALEKPEQLYRVSDEALRQAGVSKRKIEYIRHVCEHVESGRLDFTELEGAEATTVIEKLTAIKGIGQWTAEMFMMFSLGRLDVLSVGDVGLQRGAKWLYGNGEGDGKKLLIYHGKAWAPYETVACLYLWKAAGTFAEEYRSLEELLHHGNQC | soluble |
| MLYDKSLEKDNCGFGLIAHIEGEPSHKVVRTAIHALARMQHRGAILADGKTGDGCGLLLQKPDRFFRIVAEERGWRLAKNYAVGMIFLNKDPELAAASRHIVEEELQQETLSIVGWRDVPTNEGVLGEIALSSLPRIEQIFVNAPAGWRPRDMERRLFIARRRIEKRLQDDKDFYVCSLSNLVNIYKGLCMPADLPRFYLDLADLRLESAICLFHQRFSTNTVPRWPLAQPFRYLAHNGEINTITGNRQWARARTYKFQTPLIPDLQSAAPFVNETGSDSSSLDNMLELLLAGGMDIIRAMRLLVPPAWQNNPDMDQDLRAFFDFNSMHMEPWDGPAGIVMSDGRFAACNLDRNGLRPARYVITKDKLITCASEVGIWDYQPDEVVEKGRVGPGELMVIDTRGGRILHSAETDDDLKSRHPYKEWMEKNVRRLVPFEELPDEEVGSRELDDDLLASYQKQFNYSAEELDSVIRVLGENGQEAVGSMGDDTPFAVLSSQPRIIYDYFRQQFAQVTNPPIDPLREAHVMSLATSIGREMNVFCEAEGQAHRLSFKSPILLYSDFKQLTTMKEEHYRADRLDITFDVTETTLNATVKALCDKAEQMVRNGTVLLVLSDRNIGKNRLPVPAPMAVGAVQTRLVEQSLRCDANIIVETGSARDPHHFAVLLGFGATAIYPYLAYETLGRLIDTQAIAKNYRTVMQNYRNGINKGLYKIMSKMGISTIASYRCSKLFEAVGLHDDVVNLCFQGVVSRIGGASFDDFQQDLLNLSKRAWLARKPISPGGLLKYVHGGEYHAYNPDVVRTLQQAVQSGEYSDYQEYAKLVNERPASTLRDLLAIHPDGEAVTIDEVEPASELFKRFDTAAMSIGALSPEAHEALAEAMNSLGGNSNSGEGGEDPARYGTNKVSRIKQVASGRFGVTPAYLVNADVIQIKVAQGAKPGEGGQLPGDKVTPYIAKLRYSVPGVTLISPPPHHDIYSIEDLAQLIFDLKQVNPKAMISVKLVSEPGVGTIATGVAKAYADLITIAGYDGGTGASPLSSVKYAGCPWELGLVETQQALVANGLRHKIRLQVDGGLKTGVDIIKAAILGAESFGFGTGPMVALGCKYLRICHLNNCATGVATQDDKLRKNHYHGLPFKVTNYFEFIAREVRELMASLGVTRLVDLIGRTDLLKELEGFTAKQQKLALSRLLETAEPHPGKALYCTENNPPFDNGVLNAQLLQQAKPFVDARQSKTFWFDIRNTDRSVGASLSGYIAQTHGDQGLASDPIKAHFSGTAGQSFGVWNAGGVELYLTGDANDYVGKGMAGGLIAIRPPVGSAFLSHKASIIGNTCLYGATGGRLYAAGRAGERFGVRNSGAITVVEGIGDNGCEYMTGGIVCVLGKTGVNFGAGMTGGFAYVLDEDGEFRKRVNPELVEVLDVDSLAIHEEHLRGLITEHVQHTGSQRGEEILSRWSSFSTQFALVKPKSSDVKALLGHRSRSAAELRVQAQ | not soluble |
| MGHHHHHHSHIHRIDSTEVIYQPRRKRAKLIGKYLMGDLLGEGSYGKVKEVLDSETLCRRAVKILKKKKLRRIPNGEANVKKEIQLLRRLRHKNVIQLVDVLYNEEKQKMYMVMEYCVCGMQEMLDSVPEKRFPVCQAHGYFCQLIDGLEYLHSQGIVHKDIKPGNLLLTTGGTLKISDLGVAEALHPFAADDTC | not soluble |
| ASHMQRIAVTAEGPGLDGLVDPRFGRAAGFVVVDAATMAAEYVDNGASQTLSHGAGINAAQVLAKSGAGVLLTGYVGPKAFQALQAAGIKVGQDLEGLTVRQAVQRFLDGQVPMAAGPNK | soluble |
| MSLARVGVVCHVHPDADTIGAGLALALVLDGCGKRVEVSFAAPATLPESLRSLPGCHLLVRPEVMRRDVDLVVTVDIPSVDRLGALGDLTDSGRELLVIDHHASNDLFGTANFIDPSADSTTTMVAEILDAWGKPIDPRVAHCIYAGLATDTGSFRWASVRGYRLAARLVEIGVDNATVSRTLMDSHPFTWLPLLSRVLGSAQLVSEAVGGRGLVYVVVDNREWVAARSEEVESIVDIVRTTQQAEVAAVFKEVEPHRWSVSMRAKTVNLAAVASGFGGGGHRLAAGYTTTGSIDDAVASLRAALGEGHHHHHH | not soluble |
| MGSDKIHHHHHHMTVLIKEEDFIQSIADGIQFISYYHPVDYIRHLARAYEREESPAARDAMAQILTNSRMCAEGKRPLCQDTGIVNVFLKVGMNVRFDTQRTLQELCDEGVRRGYLNPDNPLRASVLDDPLFARKNTRDNTPCILHVELVPGDTVDVQVASKGGGSENKSKFVMLNPSDSLVDWVLKTVPTMGAGWCPPGMLGIGVGGTAEKAMLMAKQSLMEDIDMYELLARGPQSKLEELRIELYEKVNALGIGAQGLGGLTTVLDVKISTFPTHAASKPVAMIPNCAATRHAHFVLDGSGPARLDPPSLSEWPEVHWAPDYNKSRQVDLDTLTKEEVASWKPGQTLLLSGKMLTGRDAAHKRIQDMLSKGESLPVDFTNRVIYYVGPVDPVRDEVVGPAGPTTATRMDKFTDMMLAQTGLISMIGKSERGPVAIESIRKHGSAYLMAVGGAAYLVSKAIRNAKVLAFEDLGMEAIYEFDVKDMPVTVAVDSQGTSVHTTGPKEWQARIGKIPVAVA | not soluble |
| DAIAVWGHRPSAAKPVAIAKAAGKPVIRLEDGFVRSLDLGVNGEPPLSLVVDDCGIYYDASKPSALEKLVQDKAGNAALADQAREAMHTIVTGDLSKYNLAPAFVADESERADIVLVVDQTFNDMSVTYGNAGPHEFAAMLEAAMEENPQAEIWVKVHPDVLEGKKTGYFADLRATQRVRLIAENVSPQSLLRHVSRVYVVTSQYGFEALLAGKPVTCFGQPWYAGWGLTDDRHPQSALLSARRGSATLEELFAAAYLRYCRYIDPLTG | not soluble |
| LTAEEIIQYISDAKKSTPIKVYLNGNFEGITYPESFKVFGSEQSKVIFCEADDWKPFYEAYGSQFEDIEIEMDRRNSAIPLKDLTNTN | soluble |
| ATAVNGAPRDAALWSSHEQMLAQPLKDSDAEVYDIIKKESNRQRVGLELIASENFASRAVLEALGSCLNNKYSEGYPGQRYYGGTEHIDELETLCQKRALQAYGLDPQCWGVNVQPYSGSPANFAVYTALVEPHGRIMGLDLPDGGHLTHGFMTDKKKISATSIFFESMAYKVNPDTGYIDYDRLEENARLFHPKLIIAGTSCYSRNLDYGRLRKIADENGAYLMADMAHISGLVVAGVVPSPFEHCHVVTTTTHKTLRGCRAGMIFYRRGVRSVDPKTGKEILYNLESLINSAVFPGLQGGPHNHAIAGVAVALKQAMTPEFKEYQRQVVANCRALSAALVELGYKIVTGGSDNHLILVDLRSKGTDGGRAEKVLEACSIACNKNTCPGDKSALRPSGLRLGTPALTSRGLLEKDFQKVAHFIHRGIELTVQIQDDTGPRATLKEFKEKLAGDEKHQRAVRALRQEVESFAALFPLPGLPGF | soluble |
| MVIRVFIASSSGFVAIKKKQQDVVRFLEANKIEFEEVDITMSEEQRQWMYKNVPPEKKPTQGNPLPPQIFNGDRYCGDYDSFFESKESNTVFSFLGLK | soluble |
| MAVESRSRVTSKLVKAHRAMLNSVTQEDLKVDRLPGADYPNPSKKYSSRTEFRDKTDYIMYNPRPRDEPSSENPVSVSPLLCELAAARSRIHFNPTETTIGIVTCGGICPGLNDVIRSITLTGINVYNVKRVIGFRFGYWGLSKKGSQTAIELHRGRVTNIHHYGGTILGSSRGPQDPKEMVDTLERLGVNILFTVGGDGTQRGALVISQEAKRRGVDISVFGVPKTIDNDLSFSHRTFGFQTAVEKAVQAIRAAYAEAVSANYGVGVVKLMGRDSGFIAAQAAVASAQANICLVPENPISEQEVMSLLERRFCHSRSCVIIVAEGFGQDWGRGSGGYDASGNKKLIDIGVILTEKVKAFLKANKSRYPDSTVKYIDPSYMIRACPPSANDALFCATLATLAVHEAMAGATGCIIAMRHNNYILVPIKVATSVRRVLDLRGQLWRQVREITVDLGSDVRLARKLEIRRELEAINRNRDRLHEELAKL | soluble |
| MLYNLAIVIYDLLVHFAAPFSRKPRKMMKGHWVVYELLRQQVEKGEQYIWFHAASLGEFEQGRPLIEMIREKYPDYKILLTFFSPSGYEVRKHYRGADIVCYLPFDKPRNVKKFLDIANPCMAFFIKYEFWKNYLDELHKRRIPVYSVSSIFRRDQIFFKWYGGTYRNVLKDFDHLFVQNEASKRYLSKIGICRVTVVGDTRFDRVLQIREEAKDLPLVKMFKGDNAFTFVAGSSWGPDEDLFLEYFNTHPEMKLIIAPHVIDENHLVEIISKLKRPYVRYTRADEKNVLKVDCLIIDCFGLLSSIYRYGEVAYIGGGFGVGIHNTLEAAVYGIPVIFGPKYQKFMEAIRLLEAKGAYSIKDYHELKTLLDRFQADDVFMRETGANAGYYVTSNAGATEKIMHMINFLEHHHHHH | not soluble |
